Source: article PMC9528458 (Science signaling, 2022)
Changes are numbered by the printed parent chain. Names may count otherwise. Read-outs that look alike come from different tables or passages of the source. One block for each binder: values may come before it.

What was measured:
[1] = target: T1, mouse Fzd4 (residues 41-537), monomeric, in lipid nanodiscs (mouse, UniProt Q61088 41-537); assay: BLI
T1 sequence (looked up): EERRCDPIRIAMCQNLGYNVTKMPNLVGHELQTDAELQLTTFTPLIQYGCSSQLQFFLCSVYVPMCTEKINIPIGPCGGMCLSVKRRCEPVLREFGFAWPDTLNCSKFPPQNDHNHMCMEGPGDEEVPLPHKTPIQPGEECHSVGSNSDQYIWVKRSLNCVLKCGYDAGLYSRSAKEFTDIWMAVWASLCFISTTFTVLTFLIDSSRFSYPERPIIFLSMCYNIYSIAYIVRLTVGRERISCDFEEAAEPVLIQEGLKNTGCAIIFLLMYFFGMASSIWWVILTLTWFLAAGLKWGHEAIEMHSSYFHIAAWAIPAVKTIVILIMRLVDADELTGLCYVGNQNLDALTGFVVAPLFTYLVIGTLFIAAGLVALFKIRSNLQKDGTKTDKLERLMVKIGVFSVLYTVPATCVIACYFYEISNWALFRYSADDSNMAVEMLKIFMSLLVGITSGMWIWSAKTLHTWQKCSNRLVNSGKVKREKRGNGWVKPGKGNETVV

[2] = target: T1, mouse Fzd4 (residues 41-537), …; assay: SEC
[3] = target: T2, human FZD5 (residues 27-585), in lipid nanodiscs (human, UniProt Q13467 27-585); assay: SEC
T2 sequence (Q13467 27-585): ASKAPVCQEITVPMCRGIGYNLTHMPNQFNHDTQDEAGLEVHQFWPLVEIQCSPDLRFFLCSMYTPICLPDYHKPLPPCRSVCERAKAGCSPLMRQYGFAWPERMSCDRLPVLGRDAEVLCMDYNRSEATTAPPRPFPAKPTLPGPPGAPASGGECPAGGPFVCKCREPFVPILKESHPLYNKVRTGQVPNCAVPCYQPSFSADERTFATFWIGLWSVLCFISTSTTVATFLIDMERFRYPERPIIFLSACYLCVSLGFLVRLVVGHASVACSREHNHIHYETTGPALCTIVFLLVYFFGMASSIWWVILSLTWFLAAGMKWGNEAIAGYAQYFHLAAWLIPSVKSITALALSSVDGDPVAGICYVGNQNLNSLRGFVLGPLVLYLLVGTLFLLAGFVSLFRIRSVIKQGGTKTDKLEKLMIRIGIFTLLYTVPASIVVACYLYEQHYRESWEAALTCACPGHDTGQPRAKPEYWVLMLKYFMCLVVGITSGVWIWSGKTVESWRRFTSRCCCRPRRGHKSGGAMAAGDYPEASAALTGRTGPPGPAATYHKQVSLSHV

[4] = target: T1, mouse Fzd4 (residues 41-537), …; assay: BLI; remark: listed apart in the source
[5] = target: T1, mouse Fzd4 (residues 41-537), …; assay: BLI; remark: listed apart in the source
[6] = target: T1, mouse Fzd4 (residues 41-537), …; assay: BLI; remark: listed apart in the source
[7] = target: T1, mouse Fzd4 (residues 41-537), …; assay: BLI; remark: listed apart in the source
[8] = target: pre-formed xWnt8-FZD5 complex in nanodiscs (human | Xenopus laevis, UniProt Q13467 27-585; P28026 23-358); assay: BLI
pre-formed xWnt8-FZD5 complex in nanodiscs, sequence (Q13467 27-585, one chain of several): as the sequence (Q13467 27-585) above

[9] = target: T2, human FZD5 (residues 27-585), in lipid …; assay: BLI
[10] = target: human FZD7 (residues 33-574), in lipid nanodiscs (human, UniProt O75084 33-574); assay: BLI
[11] = target: T1, mouse Fzd4 (residues 41-537), …; assay: BLI; remark: listed apart in the source

binding result [1]: binds
B1: human Norrin (ligand, UniProt Q00604 25-133, looked up)
chain: KTDSSFIMDSDPRRCMRHHYVDSISHPLYKCSSKMVLLARCEGHCSQASRSEPLVSFSTVLKQPFRSSCHCCRPQTSKLKALRLRCSGGMRLTATYRYILSCHCEECNS

binding result [2]: binds | binding result [3]: binds
B2: Xenopus laevis Wnt8 (ligand, UniProt P28026 23-358, looked up)
chain: AWSVNNFLMTGPKAYLTYSASVAVGAQNGIEECKYQFAWERWNCPESTLQLATHNGLRSATRETSFVHAISSAGVMYTLTRNCSMGDFDNCGCDDSRNGRIGGRGWVWGGCSDNAEFGERISKLFVDGLETGQDARALMNLHNNEAGRLAVKETMKRTCKCHGISGSCSIQTCWLQLAEFRDIGNHLKIKHDQALKLEMDKRKMRSGNSADNRGAIADAFSSVAGSELIFLEDSPDYCLKNISLGLQGTEGRECLQSGKNLSQWERRSCKRLCTDCGLRVEEKKTEIISSCNCKFHWCCTVKCEQCKQVVIKHFCARRERDSNMLNTKRKNRGHRR

Kd [4]: ~2000 nM | Kd [5]: 1200 nM | Kd [6]: ~40 nM | Kd [7]: > 10000 nM | binding result [8]: binds | binding result [9]: binds | binding result [10]: binds
B3: DEP domain of mouse Dvl2 (residues 416-510) (domain or fragment, UniProt Q60838 416-510, looked up)
chain: GLSVHMDMASVTKAMAAPESGLEVRDRMWLKITIPNAFLGSDVVDWLYHHVEGFPERREARKYASGLLKAGLIRHTVNKITFSEQCYYVFGDLSG

binding result [11]: binds
B4: DEP domain of mouse Dvl2 bearing a G436P mutation (domain or fragment, UniProt Q60838 416-510, looked up)
chain: B3 chain with G21P
